Source: article PMC6713926, “Structural Basis for Properdin Oligomerization and Convertase Stimulation in the Human Complement System” (Frontiers in Immunology, 2019)

Molecular target: T1, Biotinylated C3b (human, UniProt P01024 23-667; P01024 749-1663, biotin (Maleimide-PEG2-Biotin))
T1 construct: complement C3, human, beta chain; complement C3, human, alpha' chain of C3b; also called biotin-C3b; immobilized C3b; source: made from plasma C3 by trypsin cleavage in the presence of Maleimide-PEG2-Biotin, purified by cation exchange
T1 sequence (P01024 23-667, chain 1 of 2): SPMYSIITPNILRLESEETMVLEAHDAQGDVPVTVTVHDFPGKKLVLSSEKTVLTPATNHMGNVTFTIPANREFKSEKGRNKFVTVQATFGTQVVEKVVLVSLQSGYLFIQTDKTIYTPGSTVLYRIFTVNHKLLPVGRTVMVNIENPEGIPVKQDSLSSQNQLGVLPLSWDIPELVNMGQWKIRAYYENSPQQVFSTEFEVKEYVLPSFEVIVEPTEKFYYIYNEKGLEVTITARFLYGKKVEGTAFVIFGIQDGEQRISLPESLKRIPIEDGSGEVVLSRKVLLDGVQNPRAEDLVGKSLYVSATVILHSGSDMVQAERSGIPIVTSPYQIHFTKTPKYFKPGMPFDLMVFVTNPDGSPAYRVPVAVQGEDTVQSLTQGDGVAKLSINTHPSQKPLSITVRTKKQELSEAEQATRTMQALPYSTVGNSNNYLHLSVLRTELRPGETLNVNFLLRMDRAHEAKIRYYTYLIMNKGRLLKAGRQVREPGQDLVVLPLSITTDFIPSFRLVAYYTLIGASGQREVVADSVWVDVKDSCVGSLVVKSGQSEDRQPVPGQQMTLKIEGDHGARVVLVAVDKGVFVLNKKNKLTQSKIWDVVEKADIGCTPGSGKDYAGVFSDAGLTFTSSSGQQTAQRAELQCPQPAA
T1 sequence (P01024 749-1663, chain 2 of 2): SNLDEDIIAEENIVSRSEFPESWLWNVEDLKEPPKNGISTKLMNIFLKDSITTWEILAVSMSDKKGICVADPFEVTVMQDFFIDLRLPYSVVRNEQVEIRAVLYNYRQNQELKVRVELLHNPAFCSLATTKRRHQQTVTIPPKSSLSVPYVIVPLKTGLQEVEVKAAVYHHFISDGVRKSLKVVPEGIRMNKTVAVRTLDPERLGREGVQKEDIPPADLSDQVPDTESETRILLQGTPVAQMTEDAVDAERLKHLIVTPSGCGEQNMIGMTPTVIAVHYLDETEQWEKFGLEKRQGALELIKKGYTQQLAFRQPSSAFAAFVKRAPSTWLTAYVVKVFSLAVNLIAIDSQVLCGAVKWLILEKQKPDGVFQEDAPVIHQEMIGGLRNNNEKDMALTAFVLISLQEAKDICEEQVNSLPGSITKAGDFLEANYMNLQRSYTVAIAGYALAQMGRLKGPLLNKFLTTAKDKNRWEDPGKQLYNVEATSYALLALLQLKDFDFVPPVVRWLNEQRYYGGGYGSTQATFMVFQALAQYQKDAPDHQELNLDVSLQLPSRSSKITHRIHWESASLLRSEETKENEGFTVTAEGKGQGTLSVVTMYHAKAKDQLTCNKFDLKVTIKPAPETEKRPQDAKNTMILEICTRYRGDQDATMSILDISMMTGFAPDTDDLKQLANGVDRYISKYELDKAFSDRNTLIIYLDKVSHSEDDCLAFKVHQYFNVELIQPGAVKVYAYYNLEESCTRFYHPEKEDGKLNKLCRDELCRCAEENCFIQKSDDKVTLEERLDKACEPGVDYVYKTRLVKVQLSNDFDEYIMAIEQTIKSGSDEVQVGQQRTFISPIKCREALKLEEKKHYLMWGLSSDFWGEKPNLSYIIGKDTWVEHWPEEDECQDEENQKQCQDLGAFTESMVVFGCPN
Assay: BLI; biotinylated C3b on streptavidin sensors; FPht variants at 100 to 1.56 μg/mL, 60 s steps; 30°C; 20 mM MES pH 6.0, 100 mM NaCl, 0.05% Tween, 1 mg/mL BSA; steady state 1:1 fit (for WT also kinetic analysis)
Conditions: both partners purified

B1: FPht R353A (complex)
chain 1: DPVLCFTQYEESSGKCKGLLGGGVSVEDCCLNTAFAYQKRSGGLCQPCRSPRWSLWSTWAPCSVTCSEGSQLRYRRCVGWNGQCSGKVAPGTLEWQLQACEDQQCCPEMGGWSGWGPWEPCSVTCSKGTRTRRRACNHPAPKCGGHCPGQAQESEACDTQQVCPTHGAWATWGPWTPCSASCHGGPHEPKETRSRKCSAPEPSQKPPGKPCPGLAYEQRRCTGLPPCP
chain 2: VAGGWGPWGPVSPCPVTCGLGQTMEQRTCNHPVPQHGGPFCAGDATRTHICNTAVPCPVDGEWDSWGEWSPCIRRNMKSISCQEIPGQQSRGRTCRGAKFDGHRCAGQQQDIRHCYSIQHCPLKGSWSEWSTWGLCMPPCGPNPTRARQRLCTPLLPKYPPTVSMVEGQGEKNVTFWGRPLPRCEELQGQKLVVEEKRPCLHVPACKDPEEEEL
Kd: 1000 nM
